Legend:
[1] = target: GPC3 on the surface of hepatic cancer cell lines (SK-Hep1-GPC3 transfectant, HepG2, Huh7, Hep3B, SNU398) (human) (UniProt P51654); assay: FACS, HepG2 cells; lower right panel
[2] = target: GPC3 on the surface of hepatic cancer cell lines (SK-Hep1-GPC3 transfectant, HepG2, Huh7, Hep3B, SNU398) (human) (UniProt P51654); assay: FACS, SK-Hep1-GPC3 cells; lower right panel
[3] = target: GPC3 on the surface of hepatic cancer cell lines (SK-Hep1-GPC3 transfectant, HepG2, Huh7, Hep3B, SNU398) (human) (UniProt P51654); assay: FACS, SK-Hep1-GPC3 #9 cells; lower left panel
[4] = target: GPC3 on the surface of hepatic cancer cell lines (SK-Hep1-GPC3 transfectant, HepG2, Huh7, Hep3B, SNU398) (human) (UniProt P51654); assay: FACS, SK-Hep1-GPC3 #9 cells; upper right panel

## hIgG (antibody)
[1]
  Mean, FL2-H: 2.87
[2]
  Mean, FL2-H: 3.49
[3]
  Mean, FL2-H: 5.79
[4]
  Mean, FL2-H: 4.76

From patent publication US20180346592A1
